Publication PMC4420033, “Structure and heme-binding properties of HemQ (chlorite dismutase-like protein) from Listeria monocytogenes” (Archives of Biochemistry and Biophysics, 2015)
“And” between values parts separate entries of the source, which are not always exact repeats. Equal values may be shown once.

Assays:
[1] = biological target: T1, LmCld (chlorite dismutase-like protein, HemQ) (Listeria monocytogenes, UniProt Q8Y5F1); assay: electronic circular dichroism titration, Soret minimum […] nm, Hill fit; format: binding
T1 construct: gene chdC; N-terminal StrepII-tag, TEV-cleavable (cleaved for crystallization); recombinant in E. coli Tuner (DE3); subunit approx. 30 kDa; hexamer approx. 180 kDa in solution, pentamer in crystal
T1 sequence (Q8Y5F1 1-251): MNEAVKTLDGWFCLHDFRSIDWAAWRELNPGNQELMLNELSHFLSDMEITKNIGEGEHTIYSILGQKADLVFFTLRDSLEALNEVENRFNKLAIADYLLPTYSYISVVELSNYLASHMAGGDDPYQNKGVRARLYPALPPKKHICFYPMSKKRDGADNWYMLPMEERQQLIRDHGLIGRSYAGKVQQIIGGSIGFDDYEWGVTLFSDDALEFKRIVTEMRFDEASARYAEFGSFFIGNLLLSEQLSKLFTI

[2] = biological target: the molecule itself; assay: SEC-MALS; Superdex 200 10/300 GL, Dulbecco PBS plus 200 mM NaCl, 0.75 mL per min, 50 ug protein injected
[3] = biological target: the molecule itself; assay: crystal structure; apo-LmCld, 0.1 M Tris pH 8.5, 0.6 M potassium sodium tartrate, 8% glycerol; 2.0 A, space group P 1 21 1

| Molecule | stoichiometry N [2] | also measured |
| --- | --- | --- |
| C=CC1=C(C)C2=Cc3c(C=C)c(C)c4[n]3[Fe]([Cl])[n]3c(c(C)c(CCC(=O)O)c3=CC3=NC(=C4)C(C)=C3CCC(=O)O)=CC1=N2 [hemin] |  | Kd [1]: 7.2 ± 0.5 µM |
| apo-LmCld (heme-free chlorite dismutase-like protein from Listeria monocytogenes) (natural protein, UniProt Q8Y5F1 1-251, looked up, Chlorite dismutase-like protein (HemQ) of Listeria monocytogenes; subunit of about 30 kDa; Heme-free form; The template was strain L028, the ORF annotation is of strain EGD-e; The tag is TEV-cleavable; also called HemQ; Cld-like protein) MNEAVKTLDGWFCLHDFRSIDWAAWRELNPGNQELMLNELSHFLSDMEITKNIGEGEHTIYSILGQKADLVFFTLRDSLEALNEVENRFNKLAIADYLLPTYSYISVVELSNYLASHMAGGDDPYQNKGVRARLYPALPPKKHICFYPMSKKRDGADNWYMLPMEERQQLIRDHGLIGRSYAGKVQQIIGGSIGFDDYEWGVTLFSDDALEFKRIVTEMRFDEASARYAEFGSFFIGNLLLSEQLSKLFTI | 6 subunits and 12 subunits |  |
| apo-LmCld, StrepII-tag cleaved off (as crystallized) (natural protein, Listeria monocytogenes, UniProt Q8Y5F1 1-251, looked up, Chlorite dismutase-like protein (HemQ) of Listeria monocytogenes; Heme-free; homopentamer in the crystal lattice; also called HemQ; LmCld (4WWS); source: E. coli Tuner (DE3), purified (StrepTrap, TEV cleavage, Superdex 200); not shown: StrepII, N-terminal, cleaved) MNEAVKTLDGWFCLHDFRSIDWAAWRELNPGNQELMLNELSHFLSDMEITKNIGEGEHTIYSILGQKADLVFFTLRDSLEALNEVENRFNKLAIADYLLPTYSYISVVELSNYLASHMAGGDDPYQNKGVRARLYPALPPKKHICFYPMSKKRDGADNWYMLPMEERQQLIRDHGLIGRSYAGKVQQIIGGSIGFDDYEWGVTLFSDDALEFKRIVTEMRFDEASARYAEFGSFFIGNLLLSEQLSKLFTI |  | stoichiometry N [3]: 5 subunits |
| holo-LmCld (heme b-bound chlorite dismutase-like protein from Listeria monocytogenes) (natural protein, UniProt Q8Y5F1 1-251, looked up, Chlorite dismutase-like protein (HemQ) of Listeria monocytogenes; subunit of about 30 kDa; heme is partly lost in the high-salt running buffer of the SEC-MALS; also called HemQ; Cld-like protein) MNEAVKTLDGWFCLHDFRSIDWAAWRELNPGNQELMLNELSHFLSDMEITKNIGEGEHTIYSILGQKADLVFFTLRDSLEALNEVENRFNKLAIADYLLPTYSYISVVELSNYLASHMAGGDDPYQNKGVRARLYPALPPKKHICFYPMSKKRDGADNWYMLPMEERQQLIRDHGLIGRSYAGKVQQIIGGSIGFDDYEWGVTLFSDDALEFKRIVTEMRFDEASARYAEFGSFFIGNLLLSEQLSKLFTI | 6 subunits and 12 subunits |  |
